Experimental data as given in publication PMC9750858, “Rapid biosensor development using plant hormone receptors as reprogrammable scaffolds” (Nature Biotechnology, 2022).
Read-outs that look alike come from different tables or passages of the source.

Target: T1, ABA-PYR1M complex (Arabidopsis thaliana, UniProt O49686, H60P/N90S)
T1 construct: c-myc (display detection tag); expressed in transfected cells; host or cells: yeast (surface display of PYR1^M); the HAB1 variants were recombinant and purified
T1 sequence (O49686 1-191 H60P/N90S): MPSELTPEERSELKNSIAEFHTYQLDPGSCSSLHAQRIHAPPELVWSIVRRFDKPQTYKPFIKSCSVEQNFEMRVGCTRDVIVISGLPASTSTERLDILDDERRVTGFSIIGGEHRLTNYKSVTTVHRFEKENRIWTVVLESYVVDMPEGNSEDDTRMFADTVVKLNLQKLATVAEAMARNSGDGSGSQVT
Assay: Yeast surface display titration of HAB1 variants against PYR1^M in the presence of 500 nM ABA
Type: binding
Conditions: HAB1 variant for the ABA-PYR1M complex, 95% CI in brackets, read-out: KD2
Protocol: For crystallographic structures, PYL2 and ΔN-HAB1^T+ were expressed in E. coli and purified as described previously. Assays for phosphatase activity and apparent Tm, measured via thermal challenge using yeast surface display, were performed essentially as previously described.
(a) Assessment of stabilized, inactivated 6xHis -MBP-ΔN -HAB1 variants. Experiments were repeated on two separat e days using independently generated batches of protein. Error bars indicate 1 SD of 3 measure ments . Sets of mutations f or each variant are noted in Supporting File 1.
MBP-ΔN -HAB1 variants using p-NPP.
HAB1 variants using YSD of PYR1M, in the presence of 500 nM ABA and 20 nM 6xHis -MBP-ΔN -HAB1 variant. The […]
here ref ers to streptavidin -phycoerythrin.
(b) Gating strategy for analysis of data shown in part (a). The f luorescence (a.u.) reported in part (a) is the gated ΔN - HAB 1T+ binding as measured by streptavidin -phycoeryt hrin (SAPE).

B1: WT (636): 6×His–MBP–ΔN-HAB1 (C186S, C274S) (protein)
chain: RSVYELDSIPLWGTVSIQGNRSEMEDAFAVSPHFLKLPIKMLMGDHEGMSPSLTHLTGHFFGVYDGHGGHKVADYCRDRLHFALAEEIERIKDELSKRNTGEGRQVQWDKVFTSCFLTVDGEIEGKIGRAVVGSSDKVLEAVASETVGSTAVVALVCSSHIVVSNCGDSRAVLFRGKEAMPLSVDHKPDREDEYARIENAGGKVIQWQGARVFGVLAMSRSIGDRYLKPYVIPEPEVTFMPRSREDECLILASDGLWDVMNNQEVCEIARRRILMWHKKNGAPPLAERGKGIDPACQAAADYLSMLALQKGSKDNISIIVIDLKAQRKFKTRT
- Kd (Biorep 1): 2.53 nM
- Kd (Biorep 2): 5.01 nM
